Laboratory results from publication PMC6686036, “Structural Basis for the Differential Regulatory Roles of the PDZ Domain in C-Terminal Processing Proteases” (mBio, 2019).

Experiments:
Test in all cases: crystal structure; purified Prc mutant and sNlpI mixed in a 1:2 molar ratio, complex isolated on Superdex 200 (25 mM Tris-HCl pH 8.0, 150 mM NaCl); hanging-drop vapor diffusion at 22°C (16°C for sNlpI–Prc-ΔPDZ)
[1] = biological target: T1, Prc-ΔPDZ (Prc with the deletion of residues 247 to 339) (E. coli, UniProt P23865 23-682, Δ247-339); conditions: both partners purified
T1 construct: Prc (Tsp), tail-specific C-terminal processing protease of E. coli, with the PDZ domain (residues 247 to 339) deleted; cloned into pTrc99A; also called Prc-PDZ; source: E. coli ΔPrc cells (strain MR812), purified (Ni-NTA, Mono Q, Superdex 200 with sNlpI)
T1 sequence (looked up): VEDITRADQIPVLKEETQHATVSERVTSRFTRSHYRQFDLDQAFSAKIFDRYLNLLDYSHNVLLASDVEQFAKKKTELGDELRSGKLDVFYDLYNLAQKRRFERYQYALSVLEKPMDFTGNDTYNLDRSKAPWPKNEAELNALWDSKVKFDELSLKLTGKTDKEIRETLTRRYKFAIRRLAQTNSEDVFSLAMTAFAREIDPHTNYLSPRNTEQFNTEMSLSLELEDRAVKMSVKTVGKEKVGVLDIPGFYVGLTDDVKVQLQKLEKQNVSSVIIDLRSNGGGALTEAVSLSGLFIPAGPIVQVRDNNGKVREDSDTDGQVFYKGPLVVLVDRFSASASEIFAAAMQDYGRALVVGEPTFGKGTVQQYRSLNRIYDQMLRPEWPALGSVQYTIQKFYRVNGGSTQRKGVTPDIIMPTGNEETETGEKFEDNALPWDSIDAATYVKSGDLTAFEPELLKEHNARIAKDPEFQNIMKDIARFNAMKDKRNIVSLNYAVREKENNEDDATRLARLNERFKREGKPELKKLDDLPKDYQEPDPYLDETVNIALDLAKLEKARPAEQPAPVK

[2] = biological target: the molecule itself
Prc-S452I/L252Y = biological target: T2, Prc-S452I/L252Y (E. coli, UniProt P23865 23-682, S452I | L252Y); conditions: both partners purified
T2 construct: also called Prc S452I/L252Y double mutant; unliganded resting Prc; source: E. coli ΔPrc cells (strain MR812), purified (Ni-NTA, Mono Q, Superdex 200 with sNlpI)
T2 sequence (looked up): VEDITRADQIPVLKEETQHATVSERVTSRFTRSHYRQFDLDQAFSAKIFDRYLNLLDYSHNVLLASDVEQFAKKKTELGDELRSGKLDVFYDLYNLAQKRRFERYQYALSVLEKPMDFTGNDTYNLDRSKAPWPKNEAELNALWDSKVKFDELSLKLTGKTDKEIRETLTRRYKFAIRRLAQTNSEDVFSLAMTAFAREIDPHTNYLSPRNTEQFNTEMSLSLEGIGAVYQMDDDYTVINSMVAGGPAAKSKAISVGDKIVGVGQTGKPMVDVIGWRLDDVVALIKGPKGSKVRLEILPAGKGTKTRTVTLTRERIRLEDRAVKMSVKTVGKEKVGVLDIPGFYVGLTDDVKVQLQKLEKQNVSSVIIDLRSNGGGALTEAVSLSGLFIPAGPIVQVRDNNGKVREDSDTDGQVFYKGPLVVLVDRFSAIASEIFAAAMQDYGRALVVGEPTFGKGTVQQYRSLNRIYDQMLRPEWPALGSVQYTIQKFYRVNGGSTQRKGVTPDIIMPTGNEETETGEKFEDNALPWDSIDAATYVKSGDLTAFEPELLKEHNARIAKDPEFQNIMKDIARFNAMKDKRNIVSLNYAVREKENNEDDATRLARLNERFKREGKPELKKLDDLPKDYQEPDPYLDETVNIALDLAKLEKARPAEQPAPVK

Prc-L245A/L340G = biological target: T3, Prc-L245A/L340G (E. coli, UniProt P23865 23-682, L245A | L340G); conditions: both partners purified
T3 construct: also called Prc L245A/L340G double mutant; source: E. coli ΔPrc cells (strain MR812), purified (Ni-NTA, Mono Q, Superdex 200 with sNlpI)
T3 sequence (looked up): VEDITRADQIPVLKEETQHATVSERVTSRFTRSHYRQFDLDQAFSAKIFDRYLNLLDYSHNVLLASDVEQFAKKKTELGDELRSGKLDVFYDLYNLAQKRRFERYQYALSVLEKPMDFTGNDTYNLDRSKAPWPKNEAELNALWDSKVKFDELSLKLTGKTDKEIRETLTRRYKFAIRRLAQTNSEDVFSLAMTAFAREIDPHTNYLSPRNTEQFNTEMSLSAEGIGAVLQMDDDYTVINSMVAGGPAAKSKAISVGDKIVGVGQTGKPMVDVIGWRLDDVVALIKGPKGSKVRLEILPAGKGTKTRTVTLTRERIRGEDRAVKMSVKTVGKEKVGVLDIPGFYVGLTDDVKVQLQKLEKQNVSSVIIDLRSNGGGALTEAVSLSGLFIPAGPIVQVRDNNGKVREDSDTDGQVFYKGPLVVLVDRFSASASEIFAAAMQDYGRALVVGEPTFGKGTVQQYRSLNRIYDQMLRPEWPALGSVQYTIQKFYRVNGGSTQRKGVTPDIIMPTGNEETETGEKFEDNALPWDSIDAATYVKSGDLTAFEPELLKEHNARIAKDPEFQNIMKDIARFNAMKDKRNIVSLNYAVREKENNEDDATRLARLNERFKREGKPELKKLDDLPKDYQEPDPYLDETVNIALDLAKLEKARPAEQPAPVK

- binding result [1]: binds
- binding result (Prc-S452I/L252Y): binds
- binding result (Prc-L245A/L340G): binds
B1: soluble form of NlpI (sNlpI) (natural protein, E. coli, UniProt P0AFB1 19-294, looked up)
chain: CSNTSWRKSEVLAVPLQPTLQQEVILARMEQILASRALTDDERAQLLYERGVLYDSLGLRALARNDFSQALAIRPDMPEVFNYLGIYLTQAGNFDAAYEAFDSVLELDPTYNYAHLNRGIALYYGGRDKLAQDDLLAFYQDDPNDPFRSLWLYLAEQKLDEKQAKEVLKQHFEKSDKEQWGWNIVEFYLGNISEQTLMERLKADATDNTSLAEHLSETNFYLGKYYLSLGDLDSATALFKLAVANNVHNFVEHRYALLELSLLGQDQDDLAESDQQ
notes: NlpI of E. coli without its lipoprotein signal peptide (expressed without the lipid anchor); a TEV protease cleavage site follows the N-terminal His tag; source: E. coli BL21(λDE3), purified (Ni-NTA, Mono Q, Superdex 200 with Prc)
- stoichiometry N [2]: 2
